Laboratory results taken from US20220062341A1 (KIRIN, published 2022).

B1: modified TCR consisting of β10 and α8 (TCR)
TCR alpha: CANAFNNSIIPEDTFFPSPESSCDVKLVEKSFETDTNLNFQNLSVIGFRILLLKVAGFNLLMTLRLWSS
TCR beta: YGLSENDEWTQDRAKPVTQIVSAEAWGRADCGFTSESYQQGVLSATILYEILLGKATLYAVLVSALVLMAMVKRKDSRG
B2: modified TCR consisting of β10 and α9 (TCR)
TCR alpha: FNNSIIPEDTFFPSPESSCDVKLVEKSFETDTNLNFQNLSVIGFRILLLKVAGFNLLMTLRLWSS
TCR beta: B1 TCR beta
B3: modified TCR consisting of β11 and α8 (TCR)
TCR alpha: B1 TCR alpha
TCR beta: EWTQDRAKPVTQIVSAEAWGRADCGFTSESYQQGVLSATILYEILLGKATLYAVLVSALVLMAMVKRKDSRG
B4: modified TCR consisting of β10 and α10 (TCR)
TCR alpha: IPEDTFFPSPESSCDVKLVEKSFETDTNLNFQNLSVIGFRILLLKVAGFNLLMTLRLWSS
TCR beta: B1 TCR beta
B5: modified TCR consisting of β11 and α3 (TCR)
TCR alpha: NVSQSKDSDVYITDKTVLDMRSMDFKSNSAVAWSNKSDFACANAFNNSIIPEDTFFPSPESSCDVKLVEKSFETDTNLNFQNLSVIGFRILLLKVAGFNLLMTLRLWSS
TCR beta: B3 TCR beta
B6: modified TCR consisting of β11 and α6 (TCR)
TCR alpha: KSNSAVAWSNKSDFACANAFNNSIIPEDTFFPSPESSCDVKLVEKSFETDTNLNFQNLSVIGFRILLLKVAGFNLLMTLRLWSS
TCR beta: B3 TCR beta
B7: modified TCR consisting of β11 and α9 (TCR)
TCR alpha: B2 TCR alpha
TCR beta: B3 TCR beta
B8: modified TCR consisting of β12 and α3 (TCR)
TCR alpha: B5 TCR alpha
TCR beta: AKPVTQIVSAEAWGRADCGFTSESYQQGVLSATILYEILLGKATLYAVLVSALVLMAMVKRKDSRG
B9: modified TCR consisting of β11 and α5 (TCR)
TCR alpha: LDMRSMDFKSNSAVAWSNKSDFACANAFNNSIIPEDTFFPSPESSCDVKLVEKSFETDTNLNFQNLSVIGFRILLLKVAGFNLLMTLRLWSS
TCR beta: B3 TCR beta
B10: modified TCR consisting of β11 and α7 (TCR)
TCR alpha: SNKSDFACANAFNNSIIPEDTFFPSPESSCDVKLVEKSFETDTNLNFQNLSVIGFRILLLKVAGFNLLMTLRLWSS
TCR beta: B3 TCR beta
B11: modified TCR consisting of β11 and α10 (TCR)
TCR alpha: B4 TCR alpha
TCR beta: B3 TCR beta
B12: modified TCR consisting of β11 and α4 (TCR)
TCR alpha: DVYITDKTVLDMRSMDFKSNSAVAWSNKSDFACANAFNNSIIPEDTFFPSPESSCDVKLVEKSFETDTNLNFQNLSVIGFRILLLKVAGFNLLMTLRLWSS
TCR beta: B3 TCR beta

Each binder was assayed against CD3 subunits (CD3E, CD3G, CD3D, CD3Z) (human, UniProt P07766 23-207; P09693 23-182; P04234 22-171; P20963 22-164) (assay: cell-based or functional assay).
Sequence of CD3 subunits (CD3E, CD3G, CD3D, CD3Z) (P07766 23-207, chain 1 of 4): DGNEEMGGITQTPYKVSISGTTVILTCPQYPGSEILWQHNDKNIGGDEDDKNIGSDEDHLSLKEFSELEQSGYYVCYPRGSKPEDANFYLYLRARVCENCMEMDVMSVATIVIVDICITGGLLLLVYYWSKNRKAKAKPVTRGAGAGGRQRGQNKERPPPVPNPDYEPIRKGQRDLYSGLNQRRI
Sequence of CD3 subunits (CD3E, CD3G, CD3D, CD3Z) (P09693 23-182, chain 2 of 4): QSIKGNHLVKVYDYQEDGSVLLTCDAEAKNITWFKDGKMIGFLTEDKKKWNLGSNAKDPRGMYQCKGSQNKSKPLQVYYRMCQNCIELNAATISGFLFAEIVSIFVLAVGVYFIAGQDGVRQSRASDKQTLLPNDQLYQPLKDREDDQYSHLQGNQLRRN
Sequence of CD3 subunits (CD3E, CD3G, CD3D, CD3Z) (P04234 22-171, chain 3 of 4): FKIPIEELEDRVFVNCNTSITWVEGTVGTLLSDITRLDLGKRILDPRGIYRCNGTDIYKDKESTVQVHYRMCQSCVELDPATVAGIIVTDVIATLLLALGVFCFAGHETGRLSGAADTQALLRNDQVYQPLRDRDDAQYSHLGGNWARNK
Sequence of CD3 subunits (CD3E, CD3G, CD3D, CD3Z) (P20963 22-164, chain 4 of 4): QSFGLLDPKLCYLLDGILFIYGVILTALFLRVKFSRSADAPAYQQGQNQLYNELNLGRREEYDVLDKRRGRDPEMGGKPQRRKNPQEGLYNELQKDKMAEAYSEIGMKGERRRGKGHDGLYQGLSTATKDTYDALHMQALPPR

CD3-recruiting activity (CD3-positive proportion, N=3), CD3-stably expressing 293T cells, ≥ 20%:
B1
B2
B3
B4
B5
B6
B7
B8
B9
B10
B11
B12
